First the molecules themselves.
B1: FLAG-tagged DND1 wild-type (Dead End, full-length human protein 1-353) [human] / DHX30 [human (endogenous in HEK293T)] (parent)
chain 1: MQSKRDCELWCERVNPENKAALEAWVRETGIRLVQVNGQRKYGGPPPGWVGSPPPAGSEVFIGRLPQDVYEHQLIPLFQRVGRLYEFRLMMTFSGLNRGFAYARYSSRRGAQAAIATLHNHPLRPSCPLLVCRSTEKCELSVDGLPPNLTRSALLLALQPLGPGLQEARLLPSPGPAPGQIALLKFSSHRAAAMAKKALVEGQSHLCGEQVAVEWLKPDLKQRLRQQLVGPFLRSPQPEGSQLALARDKLGFQGARATLQLLCQRMKLGSPVFLTKCLGIGPAGWHRFWYQVVIPGHPVPFSGLIWVVLTLDGRDGHEVAKDAVSVRLLQALSESGANLLWSAGAEAGTMVKQ
chain 2: MFSLDSFRKDRAQHRQRQCKLPPPRLPPMCVNPTPGGTISRASRDLLKEFPQPKNLLNSVIGRALGISHAKDKLVYVHTNGPKKKKVTLHIKWPKSVEVEGYGSKKIDAERQAAAAACQLFKGWGLLGPRNELFDAAKYRVLADRFGSPADSWWRPEPTMPPTSWRQLNPESIRPGGPGGLSRSLGREEEEDEEEELEEGTIDVTDFLSMTQQDSHAPLRDSRGSSFEMTDDDSAIRALTQFPLPKNLLAKVIQIATSSSTAKNLMQFHTVGTKTKLSTLTLLWPCPMTFVAKGRRKAEAENKAAALACKKLKSLGLVDRNNEPLTHAMYNLASLRELGETQRRPCTIQVPEPILRKIETFLNHYPVESSWIAPELRLQSDDILPLGKDSGPLSDPITGKPYVPLLEAEEVRLSQSLLELWRRRGPVWQEAPQLPVDPHRDTILNAIEQHPVVVISGDTGCGKTTRIPQLLLERYVTEGRGARCNVIITQPRRISAVSVAQRVSHELGPSLRRNVGFQVRLESKPPSRGGALLFCTVGILLRKLQSNPSLEGVSHVIVDEVHERDVNTDFLLILLKGLQRLNPALRLVLMSATGDNERFSRYFGGCPVIKVPGFMYPVKEHYLEDILAKLGKHQYLHRHRHHESEDECALDLDLVTDLVLHIDARGEPGGILCFLPGWQEIKGVQQRLQEALGMHESKYLILPVHSNIPMMDQKAIFQQPPVGVRKIVLATNIAETSITINDIVHVVDSGLHKEERYDLKTKVSCLETVWVSRANVIQRRGRAGRCQSGFAYHLFPRSRLEKMVPFQVPEILRTPLENLVLQAKIHMPEKTAVEFLSKAVDSPNIKAVDEAVILLQEIGVLDQREYLTTLGQRLAHISTDPRLAKAIVLAAIFRCLHPLLVVVSCLTRDPFSSSLQNRAEVDKVKALLSHDSGSDHLAFVRAVAGWEEVLRWQDRSSRENYLEENLLYAPSLRFIHGLIKQFSENIYEAFLVGKPSDCTLASAQCNEYSEEEELVKGVLMAGLYPNLIQVRQGKVTRQGKFKPNSVTYRTKSGNILLHKSTINREATRLRSRWLTYFMAVKSNGSVFVRDSSQVHPLAVLLLTDGDVHIRDDGRRATISLSDSDLLRLEGDSRTVRLLKELRRALGRMVERSLRSELAALPPSVQEEHGQLLALLAELLRGPCGSFDVRKTADD
B2: FLAG-tagged DND1 wild-type (Dead End, full-length human protein 1-353) [human] / HNRNPC [human (endogenous in HEK293T)] (parent)
chain 1: B1 chain 1
chain 2: MASNVTNKTDPRSMNSRVFIGNLNTLVVKKSDVEAIFSKYGKIVGCSVHKGFAFVQYVNERNARAAVAGEDGRMIAGQVLDINLAAEPKVNRGKAGVKRSAAEMYGSVTEHPSPSPLLSSSFDLDYDFQRDYYDRMYSYPARVPPPPPIARAVVPSKRQRVSGNTSRRGKSGFNSKSGQRGSSKSGKLKGDDLQAIKKELTQIKQKVDSLLENLEKIEKEQSKQAVEMKNDKSEEEQSSSSVKKDETNVKMESEGGADDSAEEGDLLDDDDNEDRGDDQLELIKDDEKEAEEGEDDRDSANGEDDS
B3: FLAG-tagged DND1 wild-type (Dead End, full-length human protein 1-353) [human] / MATR3 [human (endogenous in HEK293T)] (parent)
chain 1: B1 chain 1
chain 2: MSKSFQQSSLSRDSQGHGRDLSAAGIGLLAAATQSLSMPASLGRMNQGTARLASLMNLGMSSSLNQQGAHSALSSASTSSHNLQSIFNIGSRGPLPLSSQHRGDADQASNILASFGLSARDLDELSRYPEDKITPENLPQILLQLKRRRTEEGPTLSYGRDGRSATREPPYRVPRDDWEEKRHFRRDSFDDRGPSLNPVLDYDHGSRSQESGYYDRMDYEDDRLRDGERCRDDSFFGETSHNYHKFDSEYERMGRGPGPLQERSLFEKKRGAPPSSNIEDFHGLLPKGYPHLCSICDLPVHSNKEWSQHINGASHSRRCQLLLEIYPEWNPDNDTGHTMGDPFMLQQSTNPAPGILGPPPPSFHLGGPAVGPRGNLGAGNGNLQGPRHMQKGRVETSRVVHIMDFQRGKNLRYQLLQLVEPFGVISNHLILNKINEAFIEMATTEDAQAAVDYYTTTPALVFGKPVRVHLSQKYKRIKKPEGKPDQKFDQKQELGRVIHLSNLPHSGYSDSAVLKLAEPYGKIKNYILMRMKSQAFIEMETREDAMAMVDHCLKKALWFQGRCVKVDLSEKYKKLVLRIPNRGIDLLKKDKSRKRSYSPDGKESPSDKKSKTDGSQKTESSTEGKEQEEKSGEDGEKDTKDDQTEQEPNMLLESEDELLVDEEEAAALLESGSSVGDETDLANLGDVASDGKKEPSDKAVKKDGSASAAAKKKLKKVDKIEELDQENEAALENGIKNEENTEPGAESSENADDPNKDTSENADGQSDENKDDYTIPDEYRIGPYQPNVPVGIDYVIPKTGFYCKLCSLFYTNEEVAKNTHCSSLPHYQKLKKFLNKLAEERRQKKET
B4: FLAG-tagged DND1 wild-type (Dead End, full-length human protein 1-353) [human] / MEX3A [human (endogenous in HEK293T)] (parent)
chain 1: B1 chain 1
chain 2: MPSLVVSGIMERNGGFGELGCFGGSAKDRGLLEDERALQLALDQLCLLGLGEPPAPTAGEDGGGGGGGAPAQPAAPPQPAPPPPPAAPPAAPTAAPAAQTPQPPTAPKGASDAKLCALYKEAELRLKGSSNTTECVPVPTSEHVAEIVGRQGCKIKALRAKTNTYIKTPVRGEEPVFMVTGRREDVATARREIISAAEHFSMIRASRNKSGAAFGVAPALPGQVTIRVRVPYRVVGLVVGPKGATIKRIQQQTNTYIITPSRDRDPVFEITGAPGNVERAREEIETHIAVRTGKILEYNNENDFLAGSPDAAIDSRYSDAWRVHQPGCKPLSTFRQNSLGCIGECGVDSGFEAPRLGEQGGDFGYGGYLFPGYGVGKQDVYYGVAETSPPLWAGQENATPTSVLFSSASSSSSSSAKARAGPPGAHRSPATSAGPELAGLPRRPPGEPLQGFSKLGGGGLRSPGGGRDCMVCFESEVTAALVPCGHNLFCMECAVRICERTDPECPVCHITATQAIRIFS

Variants of B1 are the subject of one assay. Nature of the assay: FLAG immunoprecipitation and LC/ESI-MS/MS. Conditions: with DHX30 [human (endogenous in HEK293T)]; HEK293T cells, three biological replicates; read off a plot.
For chain 1 MQSKRDCELWCERVNPENKAALEAWVRETGIRLVQVNGQRKYGGPPPGWVGSPPPAGSEVFIGRLPQDVYEHQLIPLFQRVGRLYEFRLMMTFSGLNAGFAYARYSSRRGAQAAIATLHNHPLRPSCPLLVCRSTEKCELSVDGLPPNLTRSALLLALQPLGPGLQEARLLPSPGPAPGQIALLKFSSHRAAAMAKKALVEGQSHLCGEQVAVEWLKPDLKQRLRQQLVGPFLRSPQPEGSQLALARDKLGFQGARATLQLLCQRMKLGSPVFLTKCLGIGPAGWHRFWYQVVIPGHPVPFSGLIWVVLTLDGRDGHEVAKDAVSVRLLQALSESGANLLWSAGAEAGTMVKQ [chain 1 R98A], the screen value was -2.3.

Variants of B2 are the subject of a further assay. Nature of the assay: FLAG immunoprecipitation and LC/ESI-MS/MS. Particulars: with HNRNPC [human (endogenous in HEK293T)]; HEK293T cells, three biological replicates; read off a plot.
Take chain 1 R98A: the screen value was -0.8.

The variants in another assay derive from B3. The assay can be described thus: FLAG immunoprecipitation and LC/ESI-MS/MS. Particulars: with MATR3 [human (endogenous in HEK293T)]; HEK293T cells, three biological replicates; read off a plot.
On to chain 1 MQSKRDCELWCERVNPENKAALEAWVRETGIRLVQVNGQRKYGGPPPGWVGSPPPAGSEVFIGRLPQDVYEHQLIPLFQRVGRLYEFRLMMTFSGLNAGFAYARYSSRRGAQAAIATLHNHPLRPSCPLLVCRSTEKCELSVDGLPPNLTRSALLLALQPLGPGLQEARLLPSPGPAPGQIALLKFSSHRAAAMAKKALVEGQSHLCGEQVAVEWLKPDLKQRLRQQLVGPFLRSPQPEGSQLALARDKLGFQGARATLQLLCQRMKLGSPVFLTKCLGIGPAGWHRFWYQVVIPGHPVPFSGLIWVVLTLDGRDGHEVAKDAVSVRLLQALSESGANLLWSAGAEAGTMVKQ [chain 1 R98A], for which the screen value is -0.52.

Variants of B4 are the subject of a further assay. The assay can be described thus: FLAG immunoprecipitation and LC/ESI-MS/MS. Particulars: with MEX3A [human (endogenous in HEK293T)]; HEK293T cells, three biological replicates; read off a plot.
As for chain 1 MQSKRDCELWCERVNPENKAALEAWVRETGIRLVQVNGQRKYGGPPPGWVGSPPPAGSEVFIGRLPQDVYEHQLIPLFQRVGRLYEFRLMMTFSGLNAGFAYARYSSRRGAQAAIATLHNHPLRPSCPLLVCRSTEKCELSVDGLPPNLTRSALLLALQPLGPGLQEARLLPSPGPAPGQIALLKFSSHRAAAMAKKALVEGQSHLCGEQVAVEWLKPDLKQRLRQQLVGPFLRSPQPEGSQLALARDKLGFQGARATLQLLCQRMKLGSPVFLTKCLGIGPAGWHRFWYQVVIPGHPVPFSGLIWVVLTLDGRDGHEVAKDAVSVRLLQALSESGANLLWSAGAEAGTMVKQ [chain 1 R98A], the screen value is -3.2.

Source of the values: publication PMC9537309.
